According to publication PMC3290569, “Macro-to-Micro Structural Proteomics: Native Source Proteins for High-Throughput Crystallization” (PLoS ONE, 2012):

B1: 5-keto-4-deoxyuronate isomerase (enzyme, Escherichia coli, UniProt Q46938 1-278, looked up)
chain: MDVRQSIHSAHAKTLDTQGLRNEFLVEKVFVADEYTMVYSHIDRIIVGGIMPITKTVSVGGEVGKQLGVSYFLERRELGVINIGGAGTITVDGQCYEIGHRDALYVGKGAKEVVFASIDTGTPAKFYYNCAPAHTTYPTKKVTPDEVSPVTLGDNLTSNRRTINKYFVPDVLETCQLSMGLTELAPGNLWNTMPCHTHERRMEVYFYFNMDDDACVFHMMGQPQETRHIVMHNEQAVISPSWSIHSGVGTKAYTFIWGMVGENQVFDDMDHVAVKDLR
notes: 5-keto-4-deoxyuronate isomerase, Escherichia coli, native source protein; identified with PDB 1XRU; the PDB entry is the previously deposited structure that identified the protein; the crystallised protein is the native one; source: purified from E. coli DH5α cells (whole-proteome fractionation)
B2: Cystathione gamma-synthase (enzyme, Escherichia coli, UniProt P00935 1-386, looked up)
chain: MTRKQATIAVRSGLNDDEQYGCVVPPIHLSSTYNFTGFNEPRAHDYSRRGNPTRDVVQRALAELEGGAGAVLTNTGMSAIHLVTTVFLKPGDLLVAPHDCYGGSYRLFDSLAKRGCYRVLFVDQGDEQALRAALAEKPKLVLVESPSNPLLRVVDIAKICHLAREVGAVSVVDNTFLSPALQNPLALGADLVLHSCTKYLNGHSDVVAGVVIAKDPDVVTELAWWANNIGVTGGAFDSYLLLRGLRTLVPRMELAQRNAQAIVKYLQTQPLVKKLYHPSLPENQGHEIAARQQKGFGAMLSFELDGDEQTLRRFLGGLSLFTLAESLGGVESLISHAATMTHAGMAPEARAAAGISETLLRISTGIEDGEDLIADLENGFRAANKG
notes: cystathionine gamma-synthase (printed: Cystathione gamma-synthase), Escherichia coli, native source protein; identified with PDB 1CS1; the PDB entry is the previously deposited structure that identified the protein; the crystallised protein is the native one; source: purified from E. coli DH5α cells (whole-proteome fractionation)
B3: Citrate synthase (enzyme, Escherichia coli, UniProt P0ABH7 1-427, looked up)
chain: MADTKAKLTLNGDTAVELDVLKGTLGQDVIDIRTLGSKGVFTFDPGFTSTASCESKITFIDGDEGILLHRGFPIDQLATDSNYLEVCYILLNGEKPTQEQYDEFKTTVTRHTMIHEQITRLFHAFRRDSHPMAVMCGITGALAAFYHDSLDVNNPRHREIAAFRLLSKMPTMAAMCYKYSIGQPFVYPRNDLSYAGNFLNMMFSTPCEPYEVNPILERAMDRILILHADHEQNASTSTVRTAGSSGANPFACIAAGIASLWGPAHGGANEAALKMLEEISSVKHIPEFVRRAKDKNDSFRLMGFGHRVYKNYDPRATVMRETCHEVLKELGTKDDLLEVAMELENIALNDPYFIEKKLYPNVDFYSGIILKAMGIPSSMFTVIFAMARTVGWIAHWSEMHSDGMKIARPRQLYTGYEKRDFKSDIKR
notes: citrate synthase, Escherichia coli, native source protein; identified with PDB 1NXG; the PDB entry is the previously deposited structure that identified the protein; the crystallised protein is the native one; source: purified from E. coli DH5α cells (whole-proteome fractionation)
B4: Dihydrodipicolinate synthase (enzyme, Escherichia coli, UniProt P0A6L2 1-292, looked up)
chain: MFTGSIVAIVTPMDEKGNVCRASLKKLIDYHVASGTSAIVSVGTTGESATLNHDEHADVVMMTLDLADGRIPVIAGTGANATAEAISLTQRFNDSGIVGCLTVTPYYNRPSQEGLYQHFKAIAEHTDLPQILYNVPSRTGCDLLPETVGRLAKVKNIIGIKEATGNLTRVNQIKELVSDDFVLLSGDDASALDFMQLGGHGVISVTANVAARDMAQMCKLAAEGHFAEARVINQRLMPLHNKLFVEPNPIPVKWACKELGLVATDTLRLPMTPITDSGRETVRAALKHAGLL
notes: dihydrodipicolinate synthase, Escherichia coli, native source protein; identified with PDB 1DHP; the PDB entry is the previously deposited structure that identified the protein; the crystallised protein is the native one; source: purified from E. coli DH5α cells (whole-proteome fractionation)
B5: heat shock protein 31 (HSP31) (natural protein, Escherichia coli, UniProt P31658 1-283, looked up)
chain: MTVQTSKNPQVDIAEDNAFFPSEYSLSQYTSPVSDLDGVDYPKPYRGKHKILVIAADERYLPTDNGKLFSTGNHPIETLLPLYHLHAAGFEFEVATISGLMTKFEYWAMPHKDEKVMPFFEQHKSLFRNPKKLADVVASLNADSEYAAIFVPGGHGALIGLPESQDVAAALQWAIKNDRFVISLCHGPAAFLALRHGDNPLNGYSICAFPDAADKQTPEIGYMPGHLTWYFGEELKKMGMNIINDDITGRVHKDRKLLTGDSPFAANALGKLAAQEMLAAYAG
notes: Hsp31, Escherichia coli, native source protein; identified with PDB 1N57; the PDB entry is the previously deposited structure that identified the protein; the crystallised protein is the native one; source: purified from E. coli DH5α cells (whole-proteome fractionation)
B6: ycaC gene product (natural protein, Escherichia coli, UniProt P21367 1-208, looked up)
chain: MTKPYVRLDKNDAAVLLVDHQAGLLSLVRDIEPDKFKNNVLALGDLAKYFNLPTILTTSFETGPNGPLVPELKAQFPDTPYIARPGNINAWDNEDFVKAVKATGKKQLIIAGVVTEVCVAFPALSAIEEGFDVFVVTDASGTFNEITRHSAWDRLSQAGAQLMTWFGVACELHRDWRNDIEGLATLFSNHIPDYRNLMTSYDTLTKQK
notes: ycaC gene product, Escherichia coli, native source protein; identified with PDB 1YAC; the PDB entry is the previously deposited structure that identified the protein; the crystallised protein is the native one; source: purified from E. coli DH5α cells (whole-proteome fractionation)
B7: Inorganic pyrophosphatase (enzyme, Escherichia coli, UniProt P0A7A9 1-176, looked up)
chain: MSLLNVPAGKDLPEDIYVVIEIPANADPIKYEIDKESGALFVDRFMSTAMFYPCNYGYINHTLSLDGDPVDVLVPTPYPLQPGSVIRCRPVGVLKMTDEAGEDAKLVAVPHSKLSKEYDHIKDVNDLPELLKAQIAHFFEHYKDLEKGKWVKVEGWENAEAAKAEIVASFERAKNK
notes: inorganic pyrophosphatase, Escherichia coli, native source protein; identified with PDB 1IPW; the PDB entry is the previously deposited structure that identified the protein; the crystallised protein is the native one; source: purified from E. coli DH5α cells (whole-proteome fractionation)
B8: Adenylosuccinate synthetase (enzyme, Escherichia coli, UniProt P0A7D4 1-432, looked up)
chain: MGNNVVVLGTQWGDEGKGKIVDLLTERAKYVVRYQGGHNAGHTLVINGEKTVLHLIPSGILRENVTSIIGNGVVLSPAALMKEMKELEDRGIPVRERLLLSEACPLILDYHVALDNAREKARGAKAIGTTGRGIGPAYEDKVARRGLRVGDLFDKETFAEKLKEVMEYHNFQLVNYYKAEAVDYQKVLDDTMAVADILTSMVVDVSDLLDQARQRGDFVMFEGAQGTLLDIDHGTYPYVTSSNTTAGGVATGSGLGPRYVDYVLGILKAYSTRVGAGPFPTELFDETGEFLCKQGNEFGATTGRRRRTGWLDTVAVRRAVQLNSLSGFCLTKLDVLDGLKEVKLCVAYRMPDGREVTTTPLAADDWKGVEPIYETMPGWSESTFGVKDRSGLPQAALNYIKRIEELTGVPIDIISTGPDRTETMILRDPFDA
notes: adenylosuccinate synthetase, Escherichia coli, native source protein; identified with PDB 1CG1; the PDB entry is the previously deposited structure that identified the protein; the crystallised protein is the native one; source: purified from E. coli DH5α cells (whole-proteome fractionation)

Target: the molecule itself
Assay: crystal structure; native source E. coli proteins already in the PDB, identified and solved by brute-force molecular replacement, not refined except to confirm the solution; oligomer seen in the crystal

Row | Protein | binding result
1 | B1 | binds
2 | B2 | binds
3 | B3 | binds
4 | B4 | binds
5 | B5 | binds
6 | B6 | binds
7 | B7 | binds
8 | B8 | binds
